Biological target: T1, Pa-aIF2γ (γ-subunit of archaeal translation initiation factor 2 from Pyrococcus abyssi), native version (Pyrococcus abyssi, UniProt Q9V1G0 1-411)
T1 construct: aIF2 γ-subunit from Pyrococcus abyssi, native (untagged) version; Stood in the assay as part of the aIF2 heterotrimer with GDPNP and Met-tRNA; The deposited models use the S. solfataricus ternary complex (PDB 3V11) as the fitted component; source: cells overproducing the subunit, mixed with cells overproducing α and β; heterotrimer purified (heating at 80 °C, Q-Hiload, S-Hiload, Superdex 200)
T1 sequence (looked up): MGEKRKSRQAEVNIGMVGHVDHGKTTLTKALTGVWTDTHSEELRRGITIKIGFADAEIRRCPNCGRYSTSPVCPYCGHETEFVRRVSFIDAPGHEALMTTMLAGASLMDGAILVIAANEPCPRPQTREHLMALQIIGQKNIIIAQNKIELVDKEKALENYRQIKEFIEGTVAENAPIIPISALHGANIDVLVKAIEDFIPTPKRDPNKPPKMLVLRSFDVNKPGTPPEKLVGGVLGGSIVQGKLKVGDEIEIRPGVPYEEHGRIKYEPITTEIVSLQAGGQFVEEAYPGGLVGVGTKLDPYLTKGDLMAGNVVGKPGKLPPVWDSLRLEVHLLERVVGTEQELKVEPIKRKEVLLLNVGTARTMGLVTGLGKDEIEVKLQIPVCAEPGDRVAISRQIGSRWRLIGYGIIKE
Experiment: cryo-EM structure; full 30S initiation complex (Pa-30S, synthetic mRNA, Met-tRNAfMet A1-U72, GDPNP, Pa-aIF1, Pa-aIF1A, Pa-aIF2) assembled at 51 °C in IC buffer (10 mM Hepes pH 7.5, 100 mM NH4Cl, 10 mM magnesium acetate, 3 mM 2-mercaptoethanol), purified on Talon; class IC0-P_(REMOTE), tRNA out of the P site, 5.34 Å overall resolution; known structures of homologous components fitted
Settings: both partners purified

B1: Pa-aIF2α (α-subunit of archaeal translation initiation factor 2 from Pyrococcus abyssi), N-terminally tagged version (natural protein, UniProt Q9V0E4 1-275, looked up)
chain: MPRRAREYPEEGEFVVATVKRIHNYGAFLELDEYPGKEAFMHISEVASTWVRNIRDYLKEGQKVVAKVIRVDPRKGHIDLSLRRVTQQQRKAKLQEFKRAQKAENLLKLAAEKLGKDFETAWREVWVPLEEEWGEVYAAFEDAAKDGIDVLKGHVPDEWLPVLKEIIDNYVEVPTVTIDAEFEITVPKPNGVEIIKEALIRARDRANKEKDVEVKFTYLGAPRYRIDITAPDYYKAEEVLESIAEEILRVIKEAGGEATLLRKEKRIKKVKKRKK
notes: aIF2 α-subunit from Pyrococcus abyssi, N-terminally tagged version; domains 1 and 2 (aIF2α-D12) and domain 3 (aIF2α-D3); the complex was purified on a Talon column by it; Stood in the assay as part of the aIF2 heterotrimer; source: cells overproducing the subunit, mixed with cells overproducing β and γ; heterotrimer purified (heating at 80 °C, Q-Hiload, S-Hiload, Superdex 200)
binding result: binds

— PMC5103072, “Cryo-EM study of start codon selection during archaeal translation initiation” (Nature Communications, 2016)
